Test results published in US20190185562A1 (Regeneron, published 2019).

B1: MAb16676 (antibody, V domains shown)
VH: QVQLVQSGAEVMKPGASVKVSCRASGYTFSSYDINWVRQAPGQGLEWMGWISTATGNTNYPQKVQGRVTMTTDTSTNTAYMELRSLRSDDTAVYYCTREGNSKGWLDPWGQGTLVTVSS
VL: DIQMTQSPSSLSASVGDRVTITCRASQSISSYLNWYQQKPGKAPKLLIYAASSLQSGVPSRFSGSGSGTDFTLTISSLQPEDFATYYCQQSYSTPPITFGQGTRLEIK
notes: Variable domains only
B2: MAb16682 (antibody, V domains shown)
VH: EVQLVESGGGLVQPGGSLRLSCAASGFTFSTYWMNWVRQAPGKGLEWVANIKEDGSEKYYVDSVKGRFTISRDNAKNSLYLQMNSLRAEDTAVYYCAREGFGVVTYIWGQGTMVTVSS
VL: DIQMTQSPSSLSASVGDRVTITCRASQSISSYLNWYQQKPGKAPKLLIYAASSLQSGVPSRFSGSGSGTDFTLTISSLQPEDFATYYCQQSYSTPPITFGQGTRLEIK
notes: Variable domains only
B3: MAb16665 (antibody, V domains shown)
VH: QVQLVESGGGVVQPGRSLRLACAASGFTFRSYGMHWVRQAPGKGLEWVAVIWYDGSNKYYTDSVKGRFTISRDNSKNTLYLQMNSLRAEDTAMYYCAIDKWATVTTYLFDYWGQGTLVTVSS
VL: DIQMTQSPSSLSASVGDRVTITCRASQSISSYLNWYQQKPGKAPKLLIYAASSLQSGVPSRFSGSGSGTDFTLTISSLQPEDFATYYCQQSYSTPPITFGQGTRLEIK
notes: Variable domains only
B4: MAb16662 (antibody, V domains shown)
VH: EVQLVESGGGLVQPGGSLRLSCTASGFTFSNYAIFWVRQAPGKGLEYVSGISNNGVTKYYADSVRDRFTISRDNSRNTVSIQMDSLRTEDMAVYYCARENWGSDDGFDIWGQGTMVTVSS
VL: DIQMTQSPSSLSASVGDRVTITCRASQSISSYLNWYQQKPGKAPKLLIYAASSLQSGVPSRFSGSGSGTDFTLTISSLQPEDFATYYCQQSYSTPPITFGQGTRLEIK
notes: Variable domains only
B5: MAb16673 (antibody, V domains shown)
VH: EVQLVQSGAEVKKPGESLKISCKGSGYSFTSYWIDWVRQMPGKGLEWMGIIYPDDSDTRYSPSFQGQVTMSVDKSISTAYLQWSSLKASDTAIYYCARHERGIVEAGTDYYYYYGMDVWGQGTTVTVSS
VL: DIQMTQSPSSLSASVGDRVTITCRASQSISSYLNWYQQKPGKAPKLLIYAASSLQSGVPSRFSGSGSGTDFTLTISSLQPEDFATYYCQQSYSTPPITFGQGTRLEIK
notes: Variable domains only
B6: MAb16637 (antibody, V domains shown)
VH: QVQLVQSGAEVKKPGASVKVSCKASGYTFTSLGISWVRQAPGQGLEWMGWISAYSGNRDYAQKFQGRVTMTTDTSTSTAYMELRSLRSDDTAVYYCARSLRFDYWGQGTLVTVSS
VL: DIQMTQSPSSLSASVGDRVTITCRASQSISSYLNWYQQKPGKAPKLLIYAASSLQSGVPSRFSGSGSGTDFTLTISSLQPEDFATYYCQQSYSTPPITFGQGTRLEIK
notes: Variable domains only
B7: MAb16669 (antibody, V domains shown)
VH: EVQLVESGGGLVQPGGSLRLSCAASGFTFSSYAMNWVRQAPGKGLEWVSAISGSGDSTYYTDSVKGRFTISRDNSKNTLYLQMNTLRAEDTAVYYCAKEEIVMLVGATPGWFDPWGQGTLVTVSS
VL: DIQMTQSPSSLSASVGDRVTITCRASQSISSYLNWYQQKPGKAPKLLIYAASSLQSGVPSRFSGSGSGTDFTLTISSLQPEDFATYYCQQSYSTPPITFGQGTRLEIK
notes: Variable domains only
B8: MAb16623 (antibody, V domains shown)
VH: EVQLVESGGGLVQPGGSLRLSCAASGLTFSSYEMNWVRQAPGKGLEWVSHISSAGSTKYYADSVKGRFTISRDNAKNSLFLQMNSLRAEDTAIYYCAGYNYAYYYFGVDVWGQGTTVTVSS
VL: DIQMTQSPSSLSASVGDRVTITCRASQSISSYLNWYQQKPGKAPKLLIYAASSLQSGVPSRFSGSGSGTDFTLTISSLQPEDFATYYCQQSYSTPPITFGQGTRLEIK
notes: Variable domains only
B9: MAb16659 (antibody, V domains shown)
VH: QVQLVQSGPEVKKPGSSVKVSCKASGGTIDRNEITWVRQAPGQGLEWMGVIIPILGEAHYERKFQGRLTITMDESTSTAYMELSNLRSEDTAVYYCARERAARGYLDYWGQGTLVTVSS
VL: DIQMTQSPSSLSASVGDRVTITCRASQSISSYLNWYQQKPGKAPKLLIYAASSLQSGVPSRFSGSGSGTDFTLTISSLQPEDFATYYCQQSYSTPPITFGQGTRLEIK
notes: Variable domains only
B10: MAb16683 (antibody, V domains shown)
VH: QVQLVESGGGLVKPGGSLRLSCAASGFTFSDYYMTWIRQTPGKGLDWVSYISSSGTNKYNADSVKGRFTISRDNAKNSLYLQMNSLRAEDTAVYYCVRDPPWGMDVWGQGTTVTVSS
VL: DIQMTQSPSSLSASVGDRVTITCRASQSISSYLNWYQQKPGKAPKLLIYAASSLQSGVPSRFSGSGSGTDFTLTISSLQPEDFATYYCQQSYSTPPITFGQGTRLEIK
notes: Variable domains only
B11: MAb16664 (antibody, V domains shown)
VH: QVQLVQSGTEVKKPGSSVKVSCKASGGTFSTYPINWVRQAPGQGLEWMGGIIPIFGTASYAQKFQGRVAITTDESTSTAYMELNSLRSEDTAVYYCARERPNWGSNDYWGQGTLVTVSS
VL: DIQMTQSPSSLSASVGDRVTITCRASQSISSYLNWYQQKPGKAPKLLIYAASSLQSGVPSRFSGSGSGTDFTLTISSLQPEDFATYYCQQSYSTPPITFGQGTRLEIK
notes: Variable domains only
B12: MAb16618 (antibody, V domains shown)
VH: QVQLQESGPGLVKPSETLSLTCTVSGGSISNYYWTWIRQPPGKGLEWIGHISNSGTTNYNPSLKSRVTISVDTSKNQFSLKLTSVTAADTAVYYCARLPLGIAAVDTDYYYYFGMDVWGQGTTVTVSS
VL: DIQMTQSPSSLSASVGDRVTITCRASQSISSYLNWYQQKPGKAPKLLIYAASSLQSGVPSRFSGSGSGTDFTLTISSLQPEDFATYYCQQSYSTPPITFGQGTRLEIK
notes: Variable domains only
B13: MAb16622 (antibody, V domains shown)
VH: EVQLVESGGGVVRPGGSLRLSCTASGFTFDDYGMSWVRQAPGKGLEWVSGINWNGGRTEYADAVKGRFIISRDNAKNSLYLQMNSLRAEDTALYFCARTELRWDYWGQGTLVTVSS
VL: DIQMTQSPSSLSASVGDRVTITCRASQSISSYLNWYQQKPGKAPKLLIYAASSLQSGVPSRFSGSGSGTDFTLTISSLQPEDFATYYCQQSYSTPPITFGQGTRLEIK
notes: Variable domains only
B14: MAb16656 (antibody, V domains shown)
VH: EVQLVESGGGLVQPGRSLRLSCAASGFTLDDFAMHWVRQAPGKGLEWVSGISWNSGNIGYADSVKGRFTISRDNARNSLYLQMNSLRAEDTALYYCTSGYYLYYAMDVWGQGTTVTVSS
VL: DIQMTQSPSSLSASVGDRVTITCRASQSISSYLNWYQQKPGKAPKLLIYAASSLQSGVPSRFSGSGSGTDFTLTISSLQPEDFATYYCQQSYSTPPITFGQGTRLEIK
notes: Variable domains only
B15: MAb16636 (antibody, V domains shown)
VH: QLQLQESGPGLVKPSETLSLICTVSGGSISSNNYYWGWIRQPPGKGLEWIGNLYGSGSTYYNPSLKSRVTISVDTSKNQFSLKLSFVTAADTAVYHCARWDTNGGAFDIWGQGTMVTVSS
VL: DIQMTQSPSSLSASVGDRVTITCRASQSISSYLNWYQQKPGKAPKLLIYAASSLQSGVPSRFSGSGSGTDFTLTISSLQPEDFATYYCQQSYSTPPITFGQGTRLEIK
notes: Variable domains only
B16: MAb16614 (antibody, V domains shown)
VH: QVQLVESGGGVVQPGGSLRLSCAASGFTFSTYDIHWVRQAPGKGLEWVAVISFDGSNRNYGDSVKGRFTISRDNSDNTLFLEMNNLRFEDTAVYYCAKEGYGVDFQHWGQGTLVTVSS
VL: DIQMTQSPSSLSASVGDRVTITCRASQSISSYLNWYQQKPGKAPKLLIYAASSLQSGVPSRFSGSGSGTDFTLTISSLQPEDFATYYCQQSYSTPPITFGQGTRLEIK
notes: Variable domains only

Biological target: T1, full length (FL) human gp130 over-expressed on HEK293/Stat3-luc/gp130-2X Sort cells (human, UniProt P40189 23-918)
T1 construct: whole, on cells
T1 sequence (looked up): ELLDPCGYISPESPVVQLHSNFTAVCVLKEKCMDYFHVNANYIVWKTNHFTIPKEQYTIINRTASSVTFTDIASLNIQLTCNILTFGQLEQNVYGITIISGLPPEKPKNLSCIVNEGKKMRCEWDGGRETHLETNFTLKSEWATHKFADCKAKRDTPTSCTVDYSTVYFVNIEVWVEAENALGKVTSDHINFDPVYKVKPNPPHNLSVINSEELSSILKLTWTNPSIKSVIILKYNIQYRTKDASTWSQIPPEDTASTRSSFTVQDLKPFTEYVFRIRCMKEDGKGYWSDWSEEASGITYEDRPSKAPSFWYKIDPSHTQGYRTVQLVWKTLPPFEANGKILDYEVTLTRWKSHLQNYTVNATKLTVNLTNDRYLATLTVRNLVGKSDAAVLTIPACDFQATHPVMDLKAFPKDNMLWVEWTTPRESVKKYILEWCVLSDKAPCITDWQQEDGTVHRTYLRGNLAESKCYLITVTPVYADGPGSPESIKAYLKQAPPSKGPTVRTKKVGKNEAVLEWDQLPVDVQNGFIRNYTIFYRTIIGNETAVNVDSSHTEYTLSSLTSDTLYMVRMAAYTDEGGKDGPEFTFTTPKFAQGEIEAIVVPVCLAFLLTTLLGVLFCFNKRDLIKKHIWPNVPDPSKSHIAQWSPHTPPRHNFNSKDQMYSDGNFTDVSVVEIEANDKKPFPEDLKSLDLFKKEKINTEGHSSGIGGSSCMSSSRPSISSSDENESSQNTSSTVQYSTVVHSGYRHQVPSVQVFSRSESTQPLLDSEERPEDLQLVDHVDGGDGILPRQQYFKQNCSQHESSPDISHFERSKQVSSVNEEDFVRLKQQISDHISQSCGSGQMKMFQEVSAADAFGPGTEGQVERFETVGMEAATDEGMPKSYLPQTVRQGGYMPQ
Test: FACS, 10 nM mAb, 293/Stat3-luc/GP130 2X sort cells
Source text: (§1) In order to assess cell binding by anti-GP130 antibodies of the invention two cell lines were generated. One cell line generated was HEK293 cells stably over-expressing full length (FL) human gp130 (amino acids 1-918 of accession # P40189 with leucine at position 2 changed to valine, a natural variant) along with a luciferase reporter (Stat3-luciferase, Stat3-luc, SA Bioscience, #CLS-6028L). The cells were sorted twice using flow cytometry for high expression of gp130. It is known hereafter as HEK293/Stat3-luc/gp130-2X Sort. IMR-32 cells (human Neuroblastoma, ATCC), were also evaluated for cell binding as these cells express gp130 endogenously and were used for bioassays. The cells used for binding were generated to stably express a luciferase reporter (Stat3-luciferase, Stat3-luc, SA Bioscience, #CLS-6028L), and are referred to hereafter as IMR-32/STAT3-Luc cells.
(§2) For the FACS analysis, 10 nM of the antibodies were used to stain 0.5×10^6 cells/well of each cell type at 4° C. in PBS (without calcium and magnesium) containing 2% FBS for 30 minutes. IMR-32/STAT3-luc cells were incubated with 1 mg/mL mouse IgG for 30 minutes at 4° C. to block Fc receptors prior to adding the antibodies. To test whether the anti-gp130 antibody binding is specific for gp130 on the IMR-32 cells, antibodies were added to IMR-32/Stat3-luc cells with or without being pre-bound to 1000 nM of recombinant protein of the ecto-domain of human gp130 fused to myc-myc-his tag (hgp130.mmh) for 30 minutes at 25° C. […] Cells were fixed using BD CytoFix™ (Becton Dickinson, #554655) and analyzed on an IQue® (Intellicyt®) Flow Cytometer. Unstained and secondary antibody alone controls were also tested for all cell lines. The results were analyzed using ForeCyt® (IntelliCyt®) software to determine the geometric means of fluorescence for viable cells.

Row | Binder | MFI - Normalized to Unstained Control
1 | B1 | 74
2 | B2 | 80
3 | B3 | 55
4 | B4 | 49
5 | B5 | 107
6 | B6 | 121
7 | B7 | 53
8 | B8 | 96
9 | B9 | 81
10 | B10 | 75
11 | B11 | 45
12 | B12 | 105
13 | B13 | 91
14 | B14 | 132
15 | B15 | 92
16 | B16 | 94

Biological target: T2, human gp130 expressed endogenously on IMR-32/Stat3-luc cells (human, UniProt P40189 23-918)
T2 construct: whole, on cells
T2 sequence (looked up): T1 sequence (looked up)
Test: FACS, 10 nM mAb, IMR-32/Stat3-luc cells, no hGP130.mmh
Source text: as §1, §2

Row | Binder | MFI - Normalized to Unstained Control
17 | B1 | 9
18 | B2 | 6
19 | B3 | 5
20 | B4 | 5
21 | B5 | 10
22 | B6 | 9
23 | B7 | 6
24 | B8 | 8
25 | B9 | 8
26 | B10 | 9
27 | B11 | 7
28 | B12 | 7
29 | B13 | 5
30 | B14 | 12
31 | B15 | 8
32 | B16 | 7

Biological target: T2, human gp130 expressed endogenously on …
Test: FACS, 10 nM mAb, IMR-32/Stat3-luc cells, competitor 1 uM hGP130.mmh
Source text: as §1, §2

Row | Binder | MFI - Normalized to Unstained Control
33 | B1 | 8
34 | B2 | 8
35 | B3 | 6
36 | B4 | 6
37 | B5 | 7
38 | B6 | 7
39 | B7 | 5
40 | B8 | 7
41 | B9 | 8
42 | B10 | 7
43 | B11 | 8
44 | B12 | 8
45 | B13 | 7
46 | B14 | 7
47 | B15 | 7
48 | B16 | 6
